Measurements: IntAct's records for PubMed 20010843

B1: Cadherin-5 (Homo sapiens), P33151 (parent)
chain: MQRLMMLLATSGACLGLLAVAAVAAAGANPAQRDTHSLLPTHRRQKRDWIWNQMHIDEEKNTSLPHHVGKIKSSVSRKNAKYLLKGEYVGKVFRVDAETGDVFAIERLDRENISEYHLTAVIVDKDTGENLETPSSFTIKVHDVNDNWPVFTHRLFNASVPESSAVGTSVISVTAVDADDPTVGDHASVMYQILKGKEYFAIDNSGRIITITKSLDREKQARYEIVVEARDAQGLRGDSGTATVLVTLQDINDNFPFFTQTKYTFVVPEDTRVGTSVGSLFVEDPDEPQNRMTKYSILRGDYQDAFTIETNPAHNEGIIKPMKPLDYEYIQQYSFIVEATDPTIDLRYMSPPAGNRAQVIINITDVDEPPIFQQPFYHFQLKENQKKPLIGTVLAMDPDAARHSIGYSIRRTSDKGQFFRVTKKGDIYNEKELDREVYPWYNLTVEAKELDSTGTPTGKESIVQVHIEVLDENDNAPEFAKPYQPKVCENAVHGQLVLQISAIDKDITPRNVKFKFILNTENNFTLTDNHDNTANITVKYGQFDREHTKVHFLPVVISDNGMPSRTGTSTLTVAVCKCNEQGEFTFCEDMAAQVGVSIQAVVAILLCILTITVITLLIFLRRRLRKQARAHGKSVPEIHEQLVTYDEEGGGEMDTTSYDVSVLNSVRRGGAKPPRPALDARPSLYAQVQKPPRHAPGAHGGPGEMAAMIEVKKDEADHDGDGPPYDTLHIYGYEGSESIAESLSSLGTDSSDSDVDYDFLNDWGPRFKMLAELYGSDPREELLY
partner: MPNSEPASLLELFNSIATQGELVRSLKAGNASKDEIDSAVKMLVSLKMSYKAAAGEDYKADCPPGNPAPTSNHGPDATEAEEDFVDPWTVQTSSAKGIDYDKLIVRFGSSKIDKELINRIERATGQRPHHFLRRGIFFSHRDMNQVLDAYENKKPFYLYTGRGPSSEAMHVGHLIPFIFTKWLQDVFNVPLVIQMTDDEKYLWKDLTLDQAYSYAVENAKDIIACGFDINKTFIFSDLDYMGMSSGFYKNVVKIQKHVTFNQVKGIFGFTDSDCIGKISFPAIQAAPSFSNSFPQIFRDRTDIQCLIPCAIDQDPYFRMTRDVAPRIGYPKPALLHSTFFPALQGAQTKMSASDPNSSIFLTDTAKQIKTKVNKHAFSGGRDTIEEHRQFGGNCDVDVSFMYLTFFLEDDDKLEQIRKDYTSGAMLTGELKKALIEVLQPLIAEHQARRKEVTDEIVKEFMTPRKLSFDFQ
B2: Tryptophan--tRNA ligase, cytoplasmic (Homo sapiens), P23381 (parent)
chain: B1 partner
partner: B1 chain

Variants of: B1
Settings: with sywc_human WARS1, P23381

Variant | effect of a mutation on the interaction
W49A;W51A | disrupting interaction
W51A | disrupting interaction
W49A | disrupting interaction

Variants of: B2
Settings: with cadh5_human CDH5, P33151

Variant | effect of a mutation on the interaction
G161W | disrupting interaction
Y159A;Q194A | disrupting interaction
A310W | disrupting interaction
G172M | disrupting interaction
